Molecular target: LCMV glycoprotein GP33-41 epitope presented by the histocompatibility molecules H-2D^b (LCMV virus; mouse (C57BL/6)) (UniProt P09991)
Test: cell-based or functional assay

T receptor (TCR Vα2 Vβ8) specific for the GP33-41 epitope, on CD8 T lymphocytes of TCR-transgenic C57BL/6 mice
% CD44^hi effector - memory, of CD8+ TCR Vα2 T cells, 7 days after injection of H293-341-LCMV.GP particle supernatant (control H293-341: 37.6): 63.9%
CD44^lo (naïve), percent of CD8+ TCR Vα2 T cells, 7 days after injection of H293-341-LCMV.GP particle supernatant (control H293-341: 57.6): 24.5%

— patent US20040071661A1
